# Reference: patent US20210085781A1 (KORANEX CAPITAL, published 2021)
# B1: Maclura pomifera lectin (MPA; Cat. No: H-3901-1) (other)
# chain 1: GVTFDDGAYTGIREINFEYNSETAIGGLRVTYDLNGMPFVAEDHKSFITGFKPVKISLEFPSEYIVEVSGYVGKVEGYTVIRSLTFKTNKQTYGPYGVTNGTPFSLPIENGLIVGFKGSIGYWLDYFSIYLSL
# chain 2: GRNGKSQSIIVGPWGDRVTN
# Biological target: T1, recombinant SARS-CoV-2 S1 protein expressed from insect (Sf9) cells (S1-His, SinoBiological, Cat. No. … (SARS-CoV-2, UniProt P0DTC2 16-685))
# T1 construct: also called S1 protein from insect (Sf9) cells
# Experiment: ELISA, coated S1 from Sf9 cells, HRP-conjugated lectin 10 ug/mL
binder,measurement,value
B1,mean fold increase of OD450,7.51 fold
